The assay concerns the target 截短型抗原蛋白GPdM (Ebola virus (EBOV), UniProt Q05320 33-632). Kind of assay: ELISA on coated truncated GP.

By EC50 is commonly meant the midpoint of the concentration-response curve.

B1: 抗埃博拉病毒糖蛋白GP1亚基的单克隆抗体4F1 (antibody, V domains shown)
VH: EVQLVESGGGLVQPGGSLRLSCAASGFSFRIYDMHWVRQVTGRGLEWVSAIGSASDTYYRDSVKGRFTISRENAKNSLYLQMNSLRAGDTAVYYCARASFGELMFDLWGQGTLVTVSS
VL: DIQMTQSPSSLSLSPGERATLSCRASQSVGSSLAWYQQKPGQAPRLLIYAASSRATGFPDRFSGSGSGTDFTLTISRLEPEDFAVYYCQQYGGSPLTFGGGTKVEIKT
Take B1: the EC50 worked out at 6.9 ng/mL.
